Results on 14 molecules are retold here after US20180169199A1.

Test [1] has as its target HLA-A*02:06 molecule (product of HLA-A*02:06 gene) (human). The test can be described thus: flow cytometry, RA2.6 cells, peptide dilution series, BB7.2 staining. On the technique in general: In flow cytometry, cells or beads pass a laser one at a time.
For test [2], the target named is HLA-A*02:01 molecule (product of HLA-A*02:01 gene) (human). The test can be described thus: flow cytometry, T2 cells + β2m, peptide dilution series, BB7.2 staining.
Test [3] has as its target HLA-A*24:02 molecule (product of HLA-A*24:02 gene) (human). Nature of the test: flow cytometry, acid-stripped C1R-A24 cells + β2m, peptide dilution series, 17A12 staining.

As for LLLDVAPLS (modifications not checked) [peptide … (SEQ ID NO: 8)], the figures for the Binding Experiment Data (log Kd) in test [1] and in test [2] were -6.17 log Kd and -6.06 log Kd, respectively.

In the case of AQIHDLVLV (modifications not checked) [peptide … (SEQ ID NO: 12)], the values for the Binding Experiment Data (log Kd) in test [1] and in test [2] were -6.45 log Kd and -6.15 log Kd, respectively.

NQPGVLIQV (modifications not checked) [peptide … (SEQ ID NO: 14)]: the figures for the Binding Experiment Data (log Kd) in test [1] and in test [2] were -6.42 log Kd and -5.91 log Kd, respectively.

For the molecule YAFNMKSAV (modifications not checked) [peptide … (SEQ ID NO: 13)], the Binding Experiment Data (log Kd) was -5.02 log Kd in test [1] and -5.09 log Kd in test [2].

For the molecule SVTNAVITV (modifications not checked) [peptide … (SEQ ID NO: 15)], the results for the Binding Experiment Data (log Kd) in test [3], in test [1] and in test [2] were -4.37 log Kd, -5.59 log Kd and -4.76 log Kd, respectively.

For AMTKDNNLL (modifications not checked) [peptide … (SEQ ID NO: 9)], the values for the Binding Experiment Data (log Kd) in test [3], in test [1] and in test [2] were -5.49 log Kd, -4.28 log Kd and -5.56 log Kd, respectively.

As for FYPEEISSM (modifications not checked) [peptide … (SEQ ID NO: 3)], the Binding Experiment Data (log Kd) in test [3] was -7.66 log Kd.

Turning to ITRARFEEL (modifications not checked) [peptide … (SEQ ID NO: 10)], the Binding Experiment Data (log Kd) in test [3] was -5.21 log Kd; in test [1], -5.58 log Kd; in test [2] it was -4.33 log Kd.

Turning to YGAAVQAAI (modifications not checked) [peptide … (SEQ ID NO: 7)], the Binding Experiment Data (log Kd) was -5.5 log Kd in test [3], -5.37 log Kd in test [1] and -4.9 log Kd in test [2].

Consider VLVGGSTRI (modifications not checked) [peptide … (SEQ ID NO: 5)], for which the Binding Experiment Data (log Kd) in test [3] is -6.17 log Kd; in test [1], -5.07 log Kd; in test [2] it was -4.86 log Kd.

Take TFDVSILTI (modifications not checked) [peptide … (SEQ ID NO: 2)]: the Binding Experiment Data (log Kd) in test [3] was -6.24 log Kd.

MVLTKMKEI (modifications not checked) [peptide … (SEQ ID NO: 6)]: the Binding Experiment Data (log Kd) is -5.82 log Kd in test [3], -5.53 log Kd in test [1] and -4.59 log Kd in test [2].

For KLLQDFFNG (modifications not checked) [peptide … (SEQ ID NO: 4)], the Binding Experiment Data (log Kd) in test [1] was -5.27 log Kd; in test [2] it was -4.96 log Kd.

NLLGRFELS (modifications not checked) [peptide … (SEQ ID NO: 11)]: the Binding Experiment Data (log Kd) was -5.18 log Kd in test [1] and -4.56 log Kd in test [2].
